“Also recorded” adds a separate entry of the source.
Tests used:
[1] = Western blot of TCA-precipitated media for intact ROBO1-Ig5; format: physicochemical; settings: after 6 days in media, absence and presence of heparin (300 ng/ml)
Source text: Three recombinant ROBO1 ECD constructs were constructed: one comprising two immunoglobulin (Ig) domains (ROBO1-Ig2), another comprising all five Ig domains (ROBO1-Ig5), and another comprising the entire extracellular domain (ROBO1-Ecto) (FIG. 6A). In other constructs, HA (hemagglutinin), Myc, and human and mouse immunoglobulin Fc were fused to the Robo1 ECDs (FIG. 6A, 5F right). Extracellular domains of Deleted in Colorectal Cancer (DCC), a structurally similar Ig superfamily member to ROBO1, comprising either two Ig (DCC-Ig2) or four Ig (DCC-Ig4) domains and tagged with HA were constructed for use as negative controls (FIG. 6A, 5F right). Expression secretion of the constructs was confirmed by overexpressing the constructs in HEK293 cells and performing Western blots on cell lysates and media (FIG. 6B). […] Robo1-Ig5 as used herein was expressed in HEK-293 cells in the absence and presence of heparin (300 ng/ml). Media were collected from these ROBO1-Ig5 overexpressing cells on days two, four and six following plasmid transfection. Dot blot dilution assays of the collected media were performed to evaluate the relative secretion of this soluble ROBO1 ECD (FIG. 6C).
Add 1 volume of TCA stock to 4 volumes of protein sample. Incubate 10 min at 4° C. Spin tube in microcentrifuge at 14K rpm, 5 min. Remove supernatant, leaving protein pellet intact Wash pellet with 200 μl cold acetone. […]

mammary gland = assay: Subcutaneous injection into ovariectomized, hormone-treated mice; carmine-stained mammary gland branching; format: in vivo; settings: 14 days, ovariectomized animals given E, P, Prl
Method: The influence of ROBO1 ECD fragments in vitro on primary alveolar progenitor cell growth and in vivo on branching morphogenesis was tested. FACS-purified murine and bovine alveolar progenitor cells (AVPs) were plated as single cells in Matrigel and grown for 10 days in the absence and presence of ROBO1-ECDs fragments (FIGS. 9A, B). […] ROBO1-Ig5 fragments were also tested in vivo by subcutaneously injecting them (7.5 mammary gland/kg/day) into ovariectomized animals that were orally administered hormones in Nutella: estrogen (E, 1 μg/day), progesterone (P, 1 mg/day mammary gland/day) and prolactin (Prl, 0.2 mg/day mammary gland/day) (FIG. 9C). The mammary glands were harvested after 14 days of ROBO1-Ig5 fragment treatment, carmine stained and evaluated. […] Other aspects can involve ROBO1-ECD constructs that are tagged with the murine-Fc sequence. This tag is recognized by an endogenous receptor that facilitates transport into tissues 4. Mouse mammary glands were surgically dissected, spread onto a glass slide, and fixed in Carnoy's solution (25% glacial acetic acid and 75% ethanol). […] C57BL mice (8-10 weeks old) were bilaterally ovariectomized and allowed to recover for 1 week^47. During the recovery, mice were trained with oral administration Nuttella. Mice were fed Nutella mixed with 17beta-estradiol (E, 1 μg, Sigma)+progesterone (P, 1 mg, Sigma) for three weeks (daily). For ROBO1-Ig5 ECD, prolactin (Prl, 200 μg, NHPP) was given by Nutella oral administration over one week (daily), starting after 1 week E+P. For ROBO2 mAb, prolactin (Prl, 50 μg) was injected by intraperitoneal injection over 2.5 weeks (daily), starting after 1 week E+P. ROBO1-Ig5 ECD was injected subcutaneously (7.5 mg/kg ROBO1-Ig5 ECD or PBS; daily) over the 2 weeks period, starting after 1 week of E+P. ROBO2 mAbs or IgG isotype control mAbs ([…]) were injected subcutaneously twice/week over 17 days, starting after 1 week of E+P^48.

NOTCH4 = assay: Cell fractionation and Western blot for HES1 and NOTCH4-ICD in HC11 cells; format: cell-based, mouse; settings: HC11 cells treated during differentiation
Method: Notch receptor activation can be regulated through direct interactions with binding partners^24. […] To address this possibility, co-immunoprecipitation experiments were performed using MBA-MD-231 cells lysates, which express detectable levels of all four Notch receptors (NOTCH1-4). Endogenous ROBO1 co-immunoprecipitated with NOTCH4, but not […], NOTCH2 or NOTCH3 (FIG. 3H and data not shown). Next, the expression and subcellular localization of the NOTCH4 intracellular domain (N4-ICD) and HES1 was examined in control (Scr) and Robo1 (siR1) knockdown HC11 cells. Expression of Robo1 was inhibited in HC11 cells that were then primed for differentiation as described above. […] This effect was not observed in control Robo1 knockdown cells engineered to overexpress Robo1 (siR1+o/e) or cells treated with the γ-secretase inhibitor GSI (siR1+GSI) (FIGS. 3I-3K).
(§1) To examine the effects of ROBO1-ECD fragments on Notch signaling, HC11 cells were treated with ROBO1-ECD fragments and Notch effector expression assessed. […] In addition, HC11 cells were treated with ROBO-Ig5 during differentiation. These cells were then fractionated and a Western blot performed to detect HES1 and NOTCH4-ICD (FIG. 8B).
Protein lysates were prepared by directly lysing adherent cells in 1× sample buffer supplemented with 5% beta-mercaptoethanol and boiled for 5 minutes. Protein lysate was resolved by SDS-PAGE and transferred to a PVDF for 90 minutes at 400 mA or overnight at 30 mA. Primary antibodies were used at the concentration indicated in Table 1 and incubated overnight at 4° C. HRP conjugated secondary antibodies (Jackson Labs) were used at 1:3000 and incubated for 45 minutes at room temp. All proteins were detected using Clarity ECL (BioRad) using a BioRad Chemi-Doc MP Imager and quantified using ImageLab software as previously described a.

Notch signaling = assay: RT-qPCR of Notch effector expression (Hey1, Hes1) in HC11 cells; format: cell-based, mouse; settings: HC11 cells treated with ROBO1-ECD fragments
Method: as §1
Total RNA was harvested from cells lysed in TRIzol reagent (Invitrogen) and phase separated according to manufacturer's protocol with an additional overnight RNA precipitation stem in ethanol (Macias et al., 2011). The RNA was further purified with TURBO DNase (Ambion) treatment. Total RNA quality was analyzed by agarose gel electrophoresis and quantified with an ND-1000 spectrophotometer (NanoDrop). cDNA libraries were prepared from 1 μg of total RNA using iScript cDNA synthesis kit (BioRad). Quantitative RT-PCR was performed in triplicates using light Cycler 480 SYBR Green I Master (Roche) and quantified using BioRad CFX'Connect Real-Time System and CFX Manager software (BioRad). Results were normalized to GAPDH.

B1: ROBO1-Ig5: recombinant soluble ROBO1 ECD construct comprising all five Ig domains (protein)
chain: SRLRQEDFPPRIVEHPSDLIVSKGEPATLNCKAEGRPTPTIEWYKGGERVETDKDDPRSHRMLLPSGSLFFLRIVHGRKSRPDEGVYICVARNYLGEAVSHNASLEVAILRDDFRQNPSDVMVAVGEPAVMECQPPRGHPEPTISWKKDGSPLDDKDERITIRGGKLMITYTRKSDAGKYVCVGTNMVGERESEVAELTVLERPSFVKRPSNLAVTVDDSAEFKCEARGDPVPTVRWRKDDGELPKSRYEIRDDHTLKIRKVTAGDMGSYTCVAENMVGKAEASATLTVQEPPHFVVKPRDQVVALGRTVTFQCEATGNPQPAIFWRREGSQNLLFSYQPPQSSSRFSVSQTGDLTVTNVQRSDVGYYICQTLNVAGSIITKAYLEVTDVIADRPPPVIRQGPVNQTVAVDGTLTLSCVATGSPVPTILWRKDGVLVSTQDSRIKQLESGVLQIRYAKLGDTGRYTCTASTPSGEATWSAYIEVQEF
integrity of ROBO1-Ig5 protein in media [1]: intact; also recorded: no protein degradation | mammary gland area (size) (mammary gland): significantly greater area | number of primary (1°) branches (mammary gland): higher number | overall branching density (mammary gland): not different from that of controls; also recorded: no increase | secondary (2°) and tertiary (3°) branching (mammary gland): More and Increased | mammary gland area (size) (mammary gland; listed as ROBO1-Ig-5): Increased | number of primary (1°) branches (mammary gland; listed as ROBO1-Ig-5): Increased | NOTCH4-ICD in the cytoplasmic fraction (NOTCH4): lower; also recorded: reduced | HES1 protein in the nuclear fraction (NOTCH4; relative to control treatment): lower levels; also recorded: decreased | NOTCH4-ICD (N4-ICD) protein in the nuclear fraction (NOTCH4; relative to control treatment): lower levels; also recorded: decreased | Hes1 expression (Notch signaling): lower expression; also recorded: decreased | Hey1 expression (Notch signaling): lower expression; also recorded: decreased

Source: patent publication US12139531B2, “Compositions and methods useful in promoting milk production” (The Regents of the University of California, priority 2019, dated 2024)
